Measured values from paper PMC2853120.

Assays:
[1] = target: T1, tyrosyl-DNA phosphodiesterase 1 (Tdp1) (Homo sapiens, UniProt Q9NUW8 1-608); test: SPR
[2] = target: T1, tyrosyl-DNA phosphodiesterase 1 (Tdp1); test: fluorescence anisotropy
[3] = target: T1, tyrosyl-DNA phosphodiesterase 1 (Tdp1); test: SPR; remark: listed apart in the source
[4] = target: T1, tyrosyl-DNA phosphodiesterase 1 (Tdp1); test: competition
[5] = target: T1, tyrosyl-DNA phosphodiesterase 1 (Tdp1); test: fluorescence anisotropy; remark: listed apart in the source

T1 sequence (Q9NUW8 whole entry): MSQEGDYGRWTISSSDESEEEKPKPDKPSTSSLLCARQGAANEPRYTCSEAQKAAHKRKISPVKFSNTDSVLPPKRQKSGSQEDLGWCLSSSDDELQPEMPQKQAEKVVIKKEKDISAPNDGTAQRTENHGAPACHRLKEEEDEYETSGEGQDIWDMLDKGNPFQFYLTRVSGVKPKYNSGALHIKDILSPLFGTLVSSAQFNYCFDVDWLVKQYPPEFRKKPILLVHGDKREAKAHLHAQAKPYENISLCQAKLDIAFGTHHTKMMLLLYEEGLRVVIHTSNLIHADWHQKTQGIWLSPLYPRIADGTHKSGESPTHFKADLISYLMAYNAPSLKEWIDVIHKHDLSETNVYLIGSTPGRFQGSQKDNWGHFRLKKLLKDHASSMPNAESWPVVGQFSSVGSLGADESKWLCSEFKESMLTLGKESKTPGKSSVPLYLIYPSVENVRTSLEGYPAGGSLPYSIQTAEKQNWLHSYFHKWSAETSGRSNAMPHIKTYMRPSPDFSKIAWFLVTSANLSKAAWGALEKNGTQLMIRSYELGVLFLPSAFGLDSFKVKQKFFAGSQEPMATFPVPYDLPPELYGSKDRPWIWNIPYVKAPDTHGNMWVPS

Binder | Kd [2] [nM] | further results
GATCTAAAAGACTT (ssDNA, 5'-biotin; 3'-phosphate) [B14p] |  | Kd [1]: 57 nM
GATCTAAAAGACTTG (ssDNA, 3'-6-FAM via phosphorothioate (non-hydrolyzable)) [15(pS)F] | 2.4 | 
GATCTAAAAGACTT (ssDNA, 5'-6-FAM via phosphodiester; 3'-phosphate) [F14p] | 34.1 | 
GATCTAAAAGACTT (ssDNA, 5'-phosphate; 3'-biotin) [p14B] |  | binding result [3]: no binding
AAGATCTAAAAGACTTAAGGATCTAAAAGACTTGAAGATCTAAAAGACTT (ssDNA, 3'-phosphate) [50p] |  | binding signal [4]: ~10 fold higher affinity than 14p
GATCTAAAAGACTTG (ssDNA, 5'-6-FAM via phosphodiester; 3'-OH) [F15] | 39.2 | 
GATCTAAAAGACTTG (ssDNA, 5'-6-FAM via phosphorothioate; 3'-OH) [F(pS)15] | 26.3 | 
GATCTAAAAGACTT (ssDNA, 5'-6-FAM via phosphodiester; 3'-OH) [F14] |  | Kd [5]: 76.9 nM
